This note sets out measurements from article PMC10779143, “Collagen-like Osteoclast-Associated Receptor (OSCAR)-Binding Motifs Show a Co-Stimulatory Effect on Osteoclastogenesis in a Peptide Hydrogel System” (International Journal of Molecular Sciences, 2023).

[ ]: non-standard residue; d: D form. Hyp = O=C(O)[C@@H]1C[C@@H](O)CN1

This assay has as its target T1, Recombinant human OSCAR-Fc chimera (human).
T1 construct: extracellular region of human osteoclast-associated receptor (OSCAR), Asp19-Asn229 of NP_573399; In the functional rows the OSCAR of the test system is the endogenous mouse receptor of Raw 264.7 cells, not this construct; also called osteoclast-associated receptor; source: bought: R&D Systems, Bio-Techne, 9955-OS
Put plainly: SPR; Biacore T200, CM5 chip; OSCAR-Fc immobilised by amine coupling to 6880 RU; peptides flowed as analytes at 30 µL/min, 25 °C, 10 mM PBS, 150 mM NaCl, 0.05% Tween20, pH 7.4; OP1_Hyp 5000-0 nM (Langmuir 1:1 kinetic fit), OP1_Pro 40,000-0 nM (steady-state analysis). Particulars: both partners purified. In general terms: In SPR one partner is held on a chip, and binding of the other changes the refractive index at the surface.

B1: OP1_Hyp (peptide)
chain: Ac-GP[Hyp]GP[Hyp]GP[Hyp]GA[Hyp]GPAGFAGP[Hyp]GP[Hyp]GP[Hyp]-NH2
SMILES: CC(=O)NCC(=O)N1CCC[C@H]1C(=O)N1C[C@H](O)C[C@H]1C(=O)NCC(=O)N1CCC[C@H]1C(=O)N1C[C@H](O)C[C@H]1C(=O)NCC(=O)N1CCC[C@H]1C(=O)N1C[C@H](O)C[C@H]1C(=O)NCC(=O)N[C@@H](C)C(=O)N1C[C@H](O)C[C@H]1C(=O)NCC(=O)N1CCC[C@H]1C(=O)N[C@@H](C)C(=O)NCC(=O)N[C@@H](Cc1ccccc1)C(=O)N[C@@H](C)C(=O)NCC(=O)N1CCC[C@H]1C(=O)N1C[C@H](O)C[C@H]1C(=O)NCC(=O)N1CCC[C@H]1C(=O)N1C[C@H](O)C[C@H]1C(=O)NCC(=O)N1CCC[C@H]1C(=O)N1C[C@H](O)C[C@H]1C(N)=O
As a reminder, the Kd is the equilibrium constant for the complex coming apart. Turning to B1, the dissociation constant Kd turned out to be 2.63 µM.

B2: OP1_Pro (peptide)
chain: Ac-GP[Hyp]GP[Hyp]GP[Hyp]GAPGPAGFAGP[Hyp]GP[Hyp]GP[Hyp]-NH2
SMILES: CC(=O)NCC(=O)N1CCC[C@H]1C(=O)N1C[C@H](O)C[C@H]1C(=O)NCC(=O)N1CCC[C@H]1C(=O)N1C[C@H](O)C[C@H]1C(=O)NCC(=O)N1CCC[C@H]1C(=O)N1C[C@H](O)C[C@H]1C(=O)NCC(=O)N[C@@H](C)C(=O)N1CCC[C@H]1C(=O)NCC(=O)N1CCC[C@H]1C(=O)N[C@@H](C)C(=O)NCC(=O)N[C@@H](Cc1ccccc1)C(=O)N[C@@H](C)C(=O)NCC(=O)N1CCC[C@H]1C(=O)N1C[C@H](O)C[C@H]1C(=O)NCC(=O)N1CCC[C@H]1C(=O)N1C[C@H](O)C[C@H]1C(=O)NCC(=O)N1CCC[C@H]1C(=O)N1C[C@H](O)C[C@H]1C(N)=O
B2: the equilibrium dissociation constant (Kd) came out at 19.5 µM.
